How the values were obtained:
[1] = molecular target: human α2β1 integrin (VLA-2) expressed on human cancer cell lines (human) (UniProt P17301); assay: flow cytometry, hIgG4-FITC control on HT-1080 cells
[2] = molecular target: human α2β1 integrin (VLA-2) expressed on human cancer cell lines (human) (UniProt P17301); assay: flow cytometry, 10 µg/mL hIgG4-FITC control on HPAF-II cells
[3] = molecular target: human α2β1 integrin (VLA-2) expressed on human cancer cell lines (human) (UniProt P17301); assay: flow cytometry, 10 µg/mL hIgG4-FITC control on AsPC-1 cells
[4] = molecular target: human α2β1 integrin (VLA-2) expressed on human cancer cell lines (human) (UniProt P17301); assay: flow cytometry, 10 µg/mL hIgG4-FITC control on SK-BR-3 cells
[5] = molecular target: T1, human α2β1 integrin (VLA-2) expressed on human cancer cell lines (human, UniProt P17301 30-1181; P05556 21-798); assay: inhibition of cell adhesion to human collagen type I; ratio between two cell lines
T1 construct: also called α2 integrin; CD49b (α2 subunit)
Description: (§1) Ninety six well ELISA plates (black cliniplate, Thermo Firsher scientific, cat n^o 9502867) were coated with 100 μl of human collagen type I (SIGMA, cat n^o C7774) at 50 μg/mL in Acetic Acid 0.02N or in PBS. Collagen was either diluted in acetic acid and incubated for 1 hour at 37° C. or diluted in PBS and incubated overnight at 4° C. Plates were blocked with 150 μl of PBS supplemented with 0.1% BSA or 1% BSA (Sigma, cat n^o A3059). Cells were first labelled with CFSE (Invitrogen cat n^o C34554) into serum free DMEM medium (PAA, cat n^o E15-005). Three μl of a 15 mM CFSE solution was added to 5 ml cells at a concentration between 1×10⁶ cells/ml to 0.6×10⁶ cells/ml. Cells were incubated with CFSE for 10 minutes at 37° C. and CFSE excess was removed by centrifugation of the cells at 900 rpm for 3 min. CFSE-labelled cells were resuspended at a concentration between 0.6×10⁶ to 1×10⁶ cells/ml in DMEM supplemented with 0.1% BSA. […] Wells in the plates were filled with PBS and fluorescence with excitation at 498 nm and emission at 525 nm was measured using Synerg HT2 fluorometer. Data were analyzed using PRISM software. Activity of the anti-VLA-2 antibody was expressed as EC₅₀ which is defined as the concentration of antibody that provokes a response halfway between the baseline and the maximum response. […]

[6] = molecular target: T1, human α2β1 integrin (VLA-2) expressed …; assay: inhibition of adhesion of CFSE-labelled HPAF-II cells to human collagen type I, experiment II
Description: as §1

[7] = molecular target: T1, human α2β1 integrin (VLA-2) expressed …; assay: inhibition of adhesion of HPAF-II cells to human collagen type I, mean of 2 experiments
Description: as §1

[8] = molecular target: T1, human α2β1 integrin (VLA-2) expressed …; assay: inhibition of adhesion of HT-1080 cells to human collagen type I, mean of 3
Description: as §1

[9] = molecular target: T1, human α2β1 integrin (VLA-2) expressed …; assay: inhibition of adhesion of CFSE-labelled AsPC-1 cells to human collagen type I, experiment II
Description: as §1

[10] = molecular target: T1, human α2β1 integrin (VLA-2) expressed …; assay: inhibition of adhesion of AsPC-1 cells to human collagen type I, mean of 2 experiments
Description: as §1

[11] = molecular target: T1, human α2β1 integrin (VLA-2) expressed …; assay: inhibition of adhesion of CFSE-labelled HPAF-II cells to human collagen type I, experiment I
Description: as §1

[12] = molecular target: T1, human α2β1 integrin (VLA-2) expressed …; assay: inhibition of adhesion of CFSE-labelled AsPC-1 cells to human collagen type I, experiment I
Description: as §1

[13] = molecular target: T1, human α2β1 integrin (VLA-2) expressed …; assay: inhibition of adhesion of CFSE-labelled SK-BR-3 cells to human collagen type I, experiment II
Description: as §1

[14] = molecular target: T1, human α2β1 integrin (VLA-2) expressed …; assay: inhibition of adhesion of SK-BR-3 cells to human collagen type I, mean of 2 experiments
Description: as §1

[15] = molecular target: T1, human α2β1 integrin (VLA-2) expressed …; assay: inhibition of adhesion of CFSE-labelled SK-BR-3 cells to human collagen type I, experiment I
Description: as §1

T1 sequence (P17301 30-1181 E534K limits assumed, chain 1 of 2): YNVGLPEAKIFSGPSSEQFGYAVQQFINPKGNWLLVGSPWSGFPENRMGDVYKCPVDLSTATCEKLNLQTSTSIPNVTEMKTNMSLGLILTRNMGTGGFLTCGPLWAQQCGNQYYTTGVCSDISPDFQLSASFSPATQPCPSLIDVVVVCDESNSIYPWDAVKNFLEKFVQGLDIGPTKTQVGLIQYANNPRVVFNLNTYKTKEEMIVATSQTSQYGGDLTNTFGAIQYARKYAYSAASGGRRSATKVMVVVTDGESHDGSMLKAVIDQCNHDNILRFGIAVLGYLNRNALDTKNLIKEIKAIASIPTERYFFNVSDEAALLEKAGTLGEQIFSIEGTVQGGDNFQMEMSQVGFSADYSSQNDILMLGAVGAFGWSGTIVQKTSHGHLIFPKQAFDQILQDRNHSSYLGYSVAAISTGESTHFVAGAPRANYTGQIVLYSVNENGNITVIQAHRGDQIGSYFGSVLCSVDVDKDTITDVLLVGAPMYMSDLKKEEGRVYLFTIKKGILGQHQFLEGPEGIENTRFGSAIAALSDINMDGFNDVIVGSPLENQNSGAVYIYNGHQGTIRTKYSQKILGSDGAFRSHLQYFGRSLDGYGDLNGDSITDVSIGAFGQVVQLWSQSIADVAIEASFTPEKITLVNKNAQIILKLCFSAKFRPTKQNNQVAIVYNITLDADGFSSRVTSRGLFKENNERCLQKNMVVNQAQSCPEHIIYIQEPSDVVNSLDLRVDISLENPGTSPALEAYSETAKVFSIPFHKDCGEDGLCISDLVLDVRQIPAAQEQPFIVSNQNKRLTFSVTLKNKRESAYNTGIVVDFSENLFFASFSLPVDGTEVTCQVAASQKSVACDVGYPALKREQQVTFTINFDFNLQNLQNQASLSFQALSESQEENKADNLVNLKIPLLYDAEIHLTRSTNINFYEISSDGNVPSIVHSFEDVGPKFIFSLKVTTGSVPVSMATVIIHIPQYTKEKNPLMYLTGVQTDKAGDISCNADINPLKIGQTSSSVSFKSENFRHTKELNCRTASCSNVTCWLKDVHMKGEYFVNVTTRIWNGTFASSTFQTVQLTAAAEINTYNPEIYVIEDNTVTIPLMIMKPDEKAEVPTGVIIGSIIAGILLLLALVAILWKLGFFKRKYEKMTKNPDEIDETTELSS
T1 sequence (P05556 21-798 limits assumed, chain 2 of 2): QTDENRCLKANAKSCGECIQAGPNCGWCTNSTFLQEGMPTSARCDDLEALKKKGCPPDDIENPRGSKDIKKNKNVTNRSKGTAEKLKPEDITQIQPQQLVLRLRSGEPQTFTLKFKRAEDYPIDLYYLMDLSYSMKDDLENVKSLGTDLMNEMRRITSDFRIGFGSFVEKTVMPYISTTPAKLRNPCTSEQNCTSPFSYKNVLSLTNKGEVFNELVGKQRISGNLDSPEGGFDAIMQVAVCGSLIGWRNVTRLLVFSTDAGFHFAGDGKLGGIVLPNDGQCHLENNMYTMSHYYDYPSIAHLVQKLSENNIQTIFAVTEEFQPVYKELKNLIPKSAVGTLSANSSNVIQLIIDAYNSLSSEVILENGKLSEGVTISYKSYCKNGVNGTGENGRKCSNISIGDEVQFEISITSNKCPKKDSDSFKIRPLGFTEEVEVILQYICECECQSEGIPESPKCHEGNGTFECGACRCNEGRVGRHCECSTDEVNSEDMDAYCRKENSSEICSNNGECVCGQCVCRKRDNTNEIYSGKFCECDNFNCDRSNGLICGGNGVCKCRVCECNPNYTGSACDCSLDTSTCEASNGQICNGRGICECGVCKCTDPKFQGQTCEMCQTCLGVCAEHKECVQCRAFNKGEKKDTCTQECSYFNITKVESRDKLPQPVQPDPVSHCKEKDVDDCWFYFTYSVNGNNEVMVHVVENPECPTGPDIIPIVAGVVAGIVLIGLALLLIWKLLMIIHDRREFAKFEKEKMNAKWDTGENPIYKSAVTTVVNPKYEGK
Chain of human α2β1 integrin (VLA-2) expressed on human cancer cell lines (human) (P17301 30-1181 E534K limits assumed, chain 1 of 2): as the sequence (P17301 30-1181 E534K limits assumed, chain 1 of 2) above
Chain of human α2β1 integrin (VLA-2) expressed on human cancer cell lines (human) (chain, as listed by the source limits assumed, chain 2 of 2): as the sequence (P05556 21-798 limits assumed, chain 2 of 2) above

Molecule | MFI [1] | MFI [2] | MFI [3] | MFI [4] | fold EC50 on HPAF-II cells against EC50 on AsPC-1 cells [5] [fold] | EC50 [6] [µg/mL] | EC50 [7] [µg/mL] | EC50 [8] [µg/mL] | EC50 [9] [µg/mL] | EC50 [10] [µg/mL] | EC50 [11] [µg/mL] | EC50 [12] [µg/mL] | EC50 [13] [µg/mL] | EC50 [14] [µg/mL] | EC50 [15] [µg/mL]
hIgG4 isotype control antibody | 4.9 | 14.9 | 6.8 | 3.4 | – | – | – | – | – | – | – | – | – | – | –
TMC-2206, mouse anti-human α2 integrin antibody (BHA2.1 hybridoma) (antibody, V domains shown, Murine monoclonal antibody (Glenmark/Millipore, cat. MAB1998); also called MAB1998) VH: QVQLKESGPGLVAPSQSLSITCTVSGFSLTNYGIHWVRQPPGKGLEWLGVIWARGFTNYNSALMSRLIITKDNSQSQVFLKMNSLQPDDSATYFCARANDGVYYAMDYWGQGTSVTVSS VL: QFVLTQSPAFLSASPGEKVTMTCSANSSVNYIHWYQQKSGTSPKKWIYDTSKLASGVPVRFSGSGSGTSYSLTISSMETEDAATYYCQQWTTNPLTFGAGTRVELK | – | – | – | – | 3.6 | 0.253 | 0.29 | 0.097 | 0.087 | 0.08 | 0.326 | 0.074 | – | – | –
GBR500, humanized anti-human α2 integrin antibody (antibody, human IgG4, kappa, V domains shown, Its isotype-matched control is a humanized IgG4; also called GBR500-FITC; Biotin-GBR500) VH: QVQLQESGPGLVKPSETLSLTCTVSGFSLTNYGIHWIRQPPGKGLEWLGVIWARGFTNYNSALMSRLTISKDNSKNQVSLKLSSVTAADTAVYYCARANDGVYYAMDYWGQGTLVTVSS VL: DFVMTQSPAFLSVTPGEKVTITCSAQSSVNYIHWYQQKPDQAPKKLIYDTSKLASGVPSRFSGSGSGTDYTFTISSLEAEDAATYYCQQWTTNPLTFGQGTKVEIKR | – | – | – | – | 3.9 | 0.103 | 0.163 | 0.076 | 0.036 | 0.041 | 0.224 | 0.047 | 0.032 | 0.036 | 0.039
